Legend:
HeLa Kyoto [1] = test: solubility change mitosis vs G1/S (difference of NP-40 vs SDS log2 ratios) (log2 ratio difference); higher = more soluble in mitosis
HeLa Kyoto [2] = test: solubility in G1/S (NP-40 vs SDS abundance) (log2 ratio); higher = more soluble; details: cell cycle stage: G1/S
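For solubility change mitosis vs G1/S (difference of NP-40 vs SDS log2 ratios) in this document: synchronized HeLa Kyoto cells (double thymidine block for G1/S, nocodazole release for mitosis), protein amounts in NP-40 versus SDS lysates quantified by mass spectrometry, three biological replicates.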
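For solubility in G1/S (NP-40 vs SDS abundance) in this document: HeLa Kyoto cells arrested at G1/S by double thymidine block, proteins quantified by TMT10plex mass spectrometry in mild NP-40 versus SDS extracts, three biological replicates.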

| Sequence | solubility change mitosis (log2) (HeLa Kyoto [1]) | solubility in G1/S (log2) (HeLa Kyoto [2]) |
| --- | --- | --- |
| MSFLIDSSIMITSQILFFGFGWLFFMRQLFKDYEIRQYVVQVIFSVTFAFSCTMFELIIFEILGVLNSSSRYFHWKMNLCVILLILVFMVPFYIGYFIVSNIRLLHKQRLLFSCLLWLTFMYFFWKLGDPFPILSPKHGILSIEQLISRVGVIGVTLMALLSGFGAVNCPYTYMSYFLRNVTDTDILALERRLLQTMDMIISKKKRMAMARRTMFQKGEVHNKPSGFWGMIKSVTTSASGSENLTLIQQEVDALEELSRQLFLETADLYATKERIEYSKTFKGKYFNFLGYFFSIYCVWKIFMATINIVFDRVGKTDPVTRGIEITVNYLGIQFDVKFWSQHISFILVGIIIVTSIRGLLITLTKFFYAISSSKSSNVIVLLLAQIMGMYFVSSVLLIRMSMPLEYRTIITEVLGELQFNFYHRWFDVIFLVSALSSILFLYLAHKQAPEKQMAP [GPR89B] | -0.167 | -0.0559 |
| MDRDLLRQSLNCHGSSLLSLLRSEQQDNPHFRSLLGSAAEPARGPPPQHPLQGRKEKRVDNIEIQKFISKKADLLFALSWKSDAPATSEINEDSEDHYAIMPPLEQFMEIPSMDRRELFFRDIERGDIVIGRISSIREFGFFMVLICLGSGIMRDIAHLEITALCPLRDVPSHSNHGDPLSYYQTGDIIRAGIKDIDRYHEKLAVSLYSSSLPPHLSGIKLGVISSEELPLYYRRSVELNSNSLESYENVMQSSLGFVNPGVVEFLLEKLGIDESNPPSLMRGLQSKNFSEDDFASALRKKQSASWALKCVKIGVDYFKVGRHVDAMNEYNKALEIDKQNVEALVARGALYATKGSLNKAIEDFELALENCPTHRNARKYLCQTLVERGGQLEEEEKFLNAESYYKKALALDETFKDAEDALQKLHKYMQKSLELREKQAEKEEKQKTKKIETSAEKLRKLLKEEKRLKKKRRKSTSSSSVSSADESVSSSSSSSSSGHKRHKKHKRNRSESSRSSRRHSSRASSNQIDQNRKDECYPVPANTSASFLNHKQEVEKLLGKQDRLQYEKTQIKEKDRCPLSSSSLEIPDDFGGRSEDPRDFYNSYKTQAGSSKTEKPYKSERHFSSRRNSSDSFCRNSEDKIYGYRRFEKDIEGRKEHYRRWEPGSVRHSTSPASSEYSWKSVEKYKKYAHSGSRDFSRHEQRYRLNTNQGEYEREDNYGEDIKTEVPEEDALSSKEHSESSVKKNLPQNLLNIFNQIAEFEKEKGNKSKN [TTC14] | 0.329 | -0.392 |
| MDDDLMLALRLQEEWNLQEAERDHAQESLSLVDASWELVDPTPDLQALFVQFNDQFFWGQLEAVEVKWSVRMTLCAGICSYEGKGGMCSIRLSEPLLKLRPRKDLVETLLHEMIHAYLFVTNNDKDREGHGPEFCKHMHRINSLTGANITVYHTFHDEVDEYRRHWWRCNGPCQHRPPYYGYVKRATNREPSAHDYWWAEHQKTCGGTYIKIKEPENYSKKGKGKAKLGKEPVLAAENKDKPNRGEAQLVIPFSGKGYVLGETSNLPSPGKLITSHAINKTQDLLNQNHSANAVRPNSKIKVKFEQNGSSKNSHLVSPAVSNSHQNVLSNYFPRVSFANQKAFRGVNGSPRISVTVGNIPKNSVSSSSQRRVSSSKISLRNSSKVTESASVMPSQDVSGSEDTFPNKRPRLEDKTVFDNFFIKKEQIKSSGNDPKYSTTTAQNSSSSSSQSKMVNCPVCQNEVLESQINEHLDWCLEGDSIKVKSEESL [SPRTN] | 0.0242 | -0.206 |
| MSTTLLSAFYDVDFLCKTEKSLANLNLNNMLDKKAVGTPVAAAPSSGFAPGFLRRHSASNLHALAHPAPSPGSCSPKFPGAANGSSCGSAAAGGPTSYGTLKEPSGGGGTALLNKENKFRDRSFSENGDRSQHLLHLQQQQKGGGGSQINSTRYKTELCRPFEESGTCKYGEKCQFAHGFHELRSLTRHPKYKTELCRTFHTIGFCPYGPRCHFIHNADERRPAPSGGASGDLRAFGTRDALHLGFPREPRPKLHHSLSFSGFPSGHHQPPGGLESPLLLDSPTSRTPPPPSCSSASSCSSSASSCSSASAASTPSGAPTCCASAAAAAAAALLYGTGGAEDLLAPGAPCAACSSASCANNAFAFGPELSSLITPLAIQTHNFAAVAAAAYYRSQQQQQQQGLAPPAQPPAPPSATLPAGAAAPPSPPFSFQLPRRLSDSPVFDAPPSPPDSLSDRDSYLSGSLSSGSLSGSESPSLDPGRRLPIFSRLSISDD [ZFP36L2] | -0.261 | 0.322 |
| MAAPRWSASGPWIRGNGQGCGSLFTLVSKPFCAAAAASTAINAQRLAEKLRAQKREQDTKKEPVSTNAVQRRVQEIVRFTRQLQRVHPNVLAKALTRGILHQDKNLVVINKPYGLPVHGGPGVQLCITDVLPILAKMLHGHKAEPLHLCHRLDKETTGVMVLAWDKDMAHQVQELFRTRQVVKKYWAITVHVPMPSAGVVDIPIVEKEAQGQQQHHKMTLSPSYRMDDGKMVKVRRSRNAQVAVTQYQVLSSTLSSALVELQPITGIKHQLRVHLSFGLDCPILGDHKYSDWNRLAPQKLSVGTLKKLGLEQSKARYIPLHLHARQLILPALGSGKEELNLVCKLPRFFVHSLHRLRLEMPNEDQNENNEAKCLGAQ [RPUSD4] | 0.0788 | -0.22 |
| MAAAAAETPEVLRECGCKGIRTCLICERQRGSDPPWELPPAKTYRFIYCSDTGWAVGTEESDFEGWAFPFPGVMLIEDFVTREEEAELVRLMDRDPWKLSQSGRRKQDYGPKVNFRKQKLKTEGFCGLPSFSREVVRRMGLYPGLEGFRPVEQCNLDYCPERGSAIDPHLDDAWLWGERLVSLNLLSPTVLSMCREAPGSLLLCSAPSAAPEALVDSVIAPSRSVLCQEVEVAIPLPARSLLVLTGAARHQWKHAIHRRHIEARRVCVTFRELSAEFGPGGRQQELGQELLRIALSFQGRPV [ALKBH4] | -0.0312 | 0.184 |
| MASESSPLLAYRLLGEEGVALPANGAGGPGGASARKLSTFLGVVVPTVLSMFSIVVFLRIGFVVGHAGLLQALAMLLVAYFILALTVLSVCAIATNGAVQGGGAYFMISRTLGPEVGGSIGLMFYLANVCGCAVSLLGLVESVLDVFGADATGPSGLRVLPQGYGWNLLYGSLLLGLVGGVCTLGAGLYARASFLTFLLVSGSLASVLISFVAVGPRDIRLTPRPGPNGSSLPPRFGHFTGFNSSTLKDNLGAGYAEDYTTGAVMNFASVFAVLFNGCTGIMAGANMSGELKDPSRAIPLGTIVAVAYTFFVYVLLFFLSSFTCDRTLLQEDYGFFRAISLWPPLVLIGIYATALSASMSSLIGASRILHALARDDLFGVILAPAKVVSRGGNPWAAVLYSWGLVQLVLLAGKLNTLAAVVTVFYLVAYAAVDLSCLSLEWASAPNFRPTFSLFSWHTCLLGVASCLLMMFLISPGAAGGSLLLMGLLAALLTARGGPSSWGYVSQALLFHQVRKYLLRLDVRKDHVKFWRPQLLLLVGNPRGALPLLRLANQLKKGGLYVLGHVTLGDLDSLPSDPVQPQYGAWLSLVDRAQVKAFVDLTLSPSVRQGAQHLLRISGLGGMKPNTLVLGFYDDAPPQDHFLTDPAFSEPADSTREGSSPALSTLFPPPRAPGSPRALNPQDYVATVADALKMNKNVVLARASGALPPERLSRGSGGTSQLHHVDVWPLNLLRPRGGPGYVDVCGLFLLQMATILGMVPAWHSARLRIFLCLGPREAPGAAEGRLRALLSQLRIRAEVQEVVWGEGAGAGEPEAEEEGDFVNSGRGDAEAEALARSANALVRAQQGRGTGGGPGGPEGGDAEGPITALTFLYLPRPPADPARYPRYLALLETLTRDLGPTLLVHGVTPVTCTDL [SLC12A9] | 0.119 | -0.0513 |
